Laboratory results from patent US20250320281A1.

Experiments:
Assay in all cases: cell-based or functional assay
[1] = biological target: HIV-1 Env of isolate MGRM-AG-008 (subtype AG) (HIV-1)
[2] = biological target: HIV-1 Env of isolate 98CN009 (HIV-1)
[3] = biological target: HIV-1 Env of isolate MG RM-D-016 (HIV-1)
[4] = biological target: HIV-1 Env of isolate 93IN905 (subtype C) (HIV-1)
[5] = biological target: HIV-1 Env of isolate TRJ04551.58 (subtype B) (HIV-1)
[6] = biological target: HIV-1 Env of isolate JR-CSF (pseudovirus) (HIV-1) (UniProt P20871)
[7] = biological target: HIV-1 envelope glycoprotein (Env) of isolate MGRM-C-006 (HIV-1)
[8] = biological target: HIV-1 Env of isolate TRO.11 (subtype B) (HIV-1)
[9] = biological target: HIV-1 Env of isolate 92RW008 (HIV-1)
[10] = biological target: HIV-1 Env of isolate 92UG031 (HIV-1)
[11] = biological target: HIV-1 Env of isolate MGRM-C-004 (subtype C) (HIV-1)
[12] = biological target: HIV-1 envelope glycoprotein (Env) of isolate MGRM-C-010 (HIV-1)
[13] = biological target: HIV-1 Env of isolate 98CN006 (HIV-1)
[14] = biological target: HIV-1 Env of isolate THR0.18 (subtype B) (HIV-1)
[15] = biological target: HIV-1 Env of isolate MGRM-A-013 (subtype A) (HIV-1)
[16] = biological target: HIV-1 Env of isolate MGRM-Chronic-B-024 (subtype B) (HIV-1)
[17] = biological target: HIV-1 Env of isolate MGRM-AE-001 (subtype AE) (HIV-1)
[18] = biological target: HIV-1 Env of isolate SC422661.8 (subtype B) (HIV-1)
[19] = biological target: HIV-1 Env of isolate MGRM-A-014 (subtype A) (HIV-1)
[20] = biological target: HIV-1 Env of isolate MGRM-C-001 (subtype C) (HIV-1)
[21] = biological target: HIV-1 Env of pseudovirus MGRM-F1-006 (HIV-1)
[22] = biological target: HIV-1 Env of isolate SC422661.8 (Acute), clade B, on pseudovirus (HIV-1)
[23] = biological target: HIV-1 APV-13 envelope glycoprotein (Env) on pseudovirus (HIV-1)
[24] = biological target: HIV-1 Env of pseudovirus CMU02 (clade CRF01_AE) (HIV-1)
[25] = biological target: HIV-1 Env of isolate MGRM-D-018 (clade D pseudovirus) (HIV-1)
[26] = biological target: HIV-1 Env of isolate MGRM-D-013 (clade D pseudovirus) (HIV-1)
[27] = biological target: HIV-1 envelope glycoprotein (Env) of isolate MGRM-A-012, clade A (HIV-1)
[28] = biological target: HIV-1 envelope glycoprotein (Env) of isolate 92RW020, clade A (HIV-1)
[29] = biological target: HIV-1 Env of pseudovirus MGRM-G-024 (HIV-1, clade G isolate MGRM-G-024)
[30] = biological target: HIV-1 Env of isolate MGRM-D-021 (clade D pseudovirus) (HIV-1)
[31] = biological target: HIV-1 Env of pseudovirus MGRM-AE-006 (clade CRF01_AE) (HIV-1)
[32] = biological target: HIV-1 Env of isolate LAVI_C3 (HIV-1)
[33] = biological target: HIV-1 APV17 Env (pseudovirus) (HIV-1)
[34] = biological target: HIV-1 Env of isolate MGRM-G-011 (HIV-1)
[35] = biological target: HIV-1 Env of isolate MGRM-G-013 (HIV-1)

1443_C16 (PG16) (TCN-116) (antibody), sequence (VH): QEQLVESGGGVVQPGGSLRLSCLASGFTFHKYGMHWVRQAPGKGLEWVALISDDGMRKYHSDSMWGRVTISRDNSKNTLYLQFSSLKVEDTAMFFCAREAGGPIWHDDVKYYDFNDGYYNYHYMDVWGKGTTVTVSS
1443_C16 (PG16) (TCN-116) (antibody), sequence (VL): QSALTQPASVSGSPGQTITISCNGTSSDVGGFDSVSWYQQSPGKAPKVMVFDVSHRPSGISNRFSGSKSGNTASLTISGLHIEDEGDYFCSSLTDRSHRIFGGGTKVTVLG
4995_E20 (PGT-142) (antibody), sequence (VH): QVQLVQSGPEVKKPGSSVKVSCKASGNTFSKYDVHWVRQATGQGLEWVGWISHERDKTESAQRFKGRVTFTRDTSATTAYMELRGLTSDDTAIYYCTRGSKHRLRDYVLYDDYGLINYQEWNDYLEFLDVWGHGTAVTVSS
4995_E20 (PGT-142) (antibody), sequence (VL): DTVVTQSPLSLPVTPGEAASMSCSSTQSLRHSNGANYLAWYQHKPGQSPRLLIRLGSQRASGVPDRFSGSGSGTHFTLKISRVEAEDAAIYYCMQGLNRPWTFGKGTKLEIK

5114_A19 (PGT-128) (antibody) was tested, and the IC50 (µg/mL), pseudovirus neutralization [1] was 0.668 µg/mL, the IC50 (µg/mL), pseudovirus neutralization [2] was 0.025 µg/mL and the IC50 (µg/mL), pseudovirus neutralization [3] was greater than 50 µg/mL. It also gave an IC50 neutralization [4] of 0.009 µg/mL, an IC50 neutralization [5] of 0.019 µg/mL and a Polyclonal Transfectant Neutralization Index [6] of 136. The Primary Neutralization Index (B cell culture supernatant) [6] was 77.5, the IC50 (µg/mL), pseudovirus neutralization [7] was 0.014 µg/mL and the IC50 neutralization [8] was 0.018 µg/mL. It also gave an IC50 [9] of 0.003 µg/mL, an IC50 [10] greater than 50 µg/mL and an IC50 neutralization [11] of 0.025 µg/mL. The IC50 (µg/mL), pseudovirus neutralization [12] was greater than 50 µg/mL, the IC50 (µg/mL), pseudovirus neutralization [13] was 0.015 µg/mL and the IC50 neutralization [14] was greater than 50 µg/mL. It also gave an IC50 (µg/mL), pseudovirus neutralization [15] of 0.008 µg/mL, an IC50 neutralization [16] greater than 50 µg/mL and an IC50 (µg/mL), pseudovirus neutralization [17] of 0.069 µg/mL. It also gave an IC50 neutralization [18] of 1.58 µg/mL, an IC50 (µg/mL), pseudovirus neutralization [19] of 0.007 µg/mL and an IC50 neutralization [20] greater than 50 µg/mL.

For 1443_C16 (PG16) (TCN-116) (antibody), the IC50 (µg/ml), pseudovirus neutralization [21] was 0.27 µg/mL, the IC50 (µg/ml), pseudovirus neutralization [22] was 1.13 µg/mL and the IC50, pseudovirus neutralization [23] was greater than 50 µg/mL. For the same substance, the IC50 [24] was 43.6 µg/mL, the IC50 (µg/ml), pseudovirus neutralization [25] was 0.004 µg/mL and the IC50 (µg/ml), pseudovirus neutralization [26] was 0.11 µg/mL. It also gave an IC50 (µg/ml), pseudovirus neutralization [27] of 20.7 µg/mL, an IC50 (µg/ml), pseudovirus neutralization [28] of 0.28 µg/mL and an IC50 (µg/ml), pseudovirus neutralization [29] of 0.01 µg/mL. The IC50 (µg/ml), pseudovirus neutralization [30] was greater than 50 µg/mL, the IC50 [31] was 0.03 µg/mL and the IC50 [32] was 9.55 µg/mL.

Substance 2F5 (antibody) has an IC50 (µg/ml), pseudovirus neutralization [21] of 1.1 µg/mL, an IC50 (µg/ml), pseudovirus neutralization [22] greater than 50 µg/mL and an IC50, pseudovirus neutralization [23] of 2.8 µg/mL. The IC50 [24] was 0.6 µg/mL, the IC50 (µg/ml), pseudovirus neutralization [25] was 4.05 µg/mL and the IC50 (µg/ml), pseudovirus neutralization [26] was 2.12 µg/mL. It also gave an IC50 (µg/ml), pseudovirus neutralization [27] of 2.36 µg/mL, an IC50 (µg/ml), pseudovirus neutralization [28] of 3.36 µg/mL and an IC50 (µg/ml), pseudovirus neutralization [29] of 1.07 µg/mL. For the same substance, the IC50 (µg/ml), pseudovirus neutralization [30] was greater than 50 µg/mL, the IC50 [31] was 0.18 µg/mL and the IC50 [32] was greater than 50 µg/mL.

In the case of 1495_C14 (PGC14) (antibody), the IC50 (µg/ml), pseudovirus neutralization [21] was greater than 50 µg/mL, the IC50 (µg/ml), pseudovirus neutralization [22] was greater than 50 µg/mL and the IC50, pseudovirus neutralization [23] was greater than 50 µg/mL. The IC50 [24] was greater than 50 µg/mL, the IC50 (µg/ml), pseudovirus neutralization [25] was greater than 50 µg/mL and the IC50 (µg/ml), pseudovirus neutralization [26] was greater than 50 µg/mL. It also gave an IC50 (µg/ml), pseudovirus neutralization [27] greater than 50 µg/mL, an IC50 (µg/ml), pseudovirus neutralization [28] of 46 µg/mL and an IC50 (µg/ml), pseudovirus neutralization [29] greater than 50 µg/mL. It also gave an IC50 (µg/ml), pseudovirus neutralization [30] greater than 50 µg/mL, an IC50 [31] greater than 50 µg/mL and an IC50 [32] of 12 µg/mL.

With 4995_E20 (PGT-142) (antibody) the IC50 (neutralizing activity, pseudovirus) [33] was 0.393 µg/mL, the IC50 (µg/mL), pseudovirus neutralization [17] was greater than 50 µg/mL and the IC50 (µg/mL), pseudovirus neutralization [34] was 0.046 µg/mL. The IC50 (µg/mL), pseudovirus neutralization [35] was greater than 50 µg/mL.

With 4E10 (antibody) the IC50 (µg/ml), pseudovirus neutralization [21] was 1.01 µg/mL, the IC50 (µg/ml), pseudovirus neutralization [22] was 6.35 µg/mL and the IC50, pseudovirus neutralization [23] was 3.8 µg/mL. The IC50 [24] was 0.72 µg/mL, the IC50 (µg/ml), pseudovirus neutralization [25] was 3.9 µg/mL and the IC50 (µg/ml), pseudovirus neutralization [26] was 5.38 µg/mL. The IC50 (µg/ml), pseudovirus neutralization [27] was 4.27 µg/mL, the IC50 (µg/ml), pseudovirus neutralization [28] was 4.54 µg/mL and the IC50 (µg/ml), pseudovirus neutralization [29] was 1.57 µg/mL. For the same substance, the IC50 (µg/ml), pseudovirus neutralization [30] was 13.3 µg/mL, the IC50 [31] was 0.23 µg/mL and the IC50 [32] was 2.85 µg/mL.

Substance b12 (antibody) has an IC50 (µg/ml), pseudovirus neutralization [21] greater than 50 µg/mL, an IC50 (µg/ml), pseudovirus neutralization [22] of 6.11 µg/mL and an IC50, pseudovirus neutralization [23] greater than 25 µg/mL. The IC50 [24] was 29.3 µg/mL, the IC50 (µg/ml), pseudovirus neutralization [25] was 1.39 µg/mL and the IC50 (µg/ml), pseudovirus neutralization [26] was greater than 50 µg/mL. The IC50 (µg/ml), pseudovirus neutralization [27] was greater than 50 µg/mL, the IC50 (µg/ml), pseudovirus neutralization [28] was greater than 50 µg/mL and the IC50 (µg/ml), pseudovirus neutralization [29] was 2.38 µg/mL. The IC50 (µg/ml), pseudovirus neutralization [30] was 5.23 µg/mL, the IC50 [31] was greater than 50 µg/mL and the IC50 [32] was 0.94 µg/mL.

With PGV04 (antibody) the IC50 [2] was 0.0125 µg/mL, the IC50 [13] was 1.32 µg/mL and the IC50 (µg/mL), pseudovirus neutralization [34] was 0.78 µg/mL. It also gave an IC50 (µg/mL), pseudovirus neutralization [35] of 0.168 µg/mL.
